# Results: IntAct's records for PubMed 32852592
# B1: Mitogen-activated protein kinase 13 (Homo sapiens), O15264 (parent)
# chain: MSLIRKKGFYKQDVNKTAWELPKTYVSPTHVGSGAYGSVCSAIDKRSGEKVAIKKLSRPFQSEIFAKRAYRELLLLKHMQHENVIGLLDVFTPASSLRNFYDFYLVMPFMQTDLQKIMGMEFSEEKIQYLVYQMLKGLKYIHSAGVVHRDLKPGNLAVNEDCELKILDFGLARHADAEMTGYVVTRWYRAPEVILSWMHYNQTVDIWSVGCIMAEMLTGKTLFKGKDYLDQLTQILKVTGVPGTEFVQKLNDKAAKSYIQSLPQTPRKDFTQLFPRASPQAADLLEKMLELDVDKRLTAAQALTHPFFEPFRDPEEETEAQQPFDDSLEHEKLTVDEWKQHIYKEIVNFSPIARKDSRRRSGMKL
# Variants of: B1
# Conditions: with stat3_human STAT3, P40763
# Sequence of stat3_human STAT3, P40763 (P40763 whole entry): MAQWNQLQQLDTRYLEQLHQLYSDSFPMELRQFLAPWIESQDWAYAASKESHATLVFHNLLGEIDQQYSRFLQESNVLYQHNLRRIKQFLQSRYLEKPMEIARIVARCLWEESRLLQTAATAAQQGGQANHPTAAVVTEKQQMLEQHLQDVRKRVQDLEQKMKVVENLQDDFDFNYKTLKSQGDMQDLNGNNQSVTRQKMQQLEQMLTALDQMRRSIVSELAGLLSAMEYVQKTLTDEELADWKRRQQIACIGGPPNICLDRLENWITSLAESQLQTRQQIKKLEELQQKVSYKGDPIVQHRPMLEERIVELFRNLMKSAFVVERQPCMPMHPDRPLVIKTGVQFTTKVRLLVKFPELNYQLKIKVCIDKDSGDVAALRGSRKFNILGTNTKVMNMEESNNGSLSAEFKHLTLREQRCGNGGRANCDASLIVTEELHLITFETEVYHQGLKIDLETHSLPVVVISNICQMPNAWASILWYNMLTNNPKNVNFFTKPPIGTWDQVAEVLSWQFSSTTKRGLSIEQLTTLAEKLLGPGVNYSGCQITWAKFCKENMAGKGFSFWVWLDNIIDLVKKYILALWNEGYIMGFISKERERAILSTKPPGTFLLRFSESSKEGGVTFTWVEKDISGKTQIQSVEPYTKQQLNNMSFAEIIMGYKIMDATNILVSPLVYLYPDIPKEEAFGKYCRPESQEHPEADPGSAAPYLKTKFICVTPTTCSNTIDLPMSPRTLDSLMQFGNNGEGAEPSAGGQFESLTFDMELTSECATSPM
row,effect of a mutation on the interaction,Variant
1,with no effect,T180A;Y182A
